Biological target: commercial Trail (TNF-related apoptosis-inducing ligand, TRAIL) (UniProt P50591)
Assay: cell-based or functional assay

Sequence of commercial Trail (TNF-related apoptosis-inducing ligand, TRAIL) (P50591 114-281 limits assumed): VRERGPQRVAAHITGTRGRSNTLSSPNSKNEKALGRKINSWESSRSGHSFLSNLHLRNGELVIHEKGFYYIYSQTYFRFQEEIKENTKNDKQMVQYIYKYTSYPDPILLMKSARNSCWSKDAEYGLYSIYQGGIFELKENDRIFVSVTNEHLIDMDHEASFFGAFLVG
Sequence of commercial DR5-Fc fusion protein (R&D Systems) (O14763 52-182): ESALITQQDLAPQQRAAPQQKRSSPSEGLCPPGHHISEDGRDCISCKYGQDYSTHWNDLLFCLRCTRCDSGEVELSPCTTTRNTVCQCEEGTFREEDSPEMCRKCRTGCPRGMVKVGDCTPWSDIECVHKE

EC50 of blocking TRAIL-induced apoptosis of HepG2 cells: 0.0276 µg/mL
Substance: commercial DR5-Fc fusion protein (R&D Systems) (from UniProt O14763 52-182)
EC50 of blocking Trail (at EC90) killing of Jurkat cells, MTS/PMS A490-A630: 0.0718 µg/mL
